Measurements from patent US20240287161A1 (NATIONAL UNIVERSITY CORPORATION TOTTORI UNIVERSITY, published 2024).

T1: HCoV-HKU1 trimeric S protein (amino acids 13-1293) with T4 foldon, histidine tag and strep-tag (HCoV-HKU1, UniProt Q5MQD0 13-1297)
T1 sequence: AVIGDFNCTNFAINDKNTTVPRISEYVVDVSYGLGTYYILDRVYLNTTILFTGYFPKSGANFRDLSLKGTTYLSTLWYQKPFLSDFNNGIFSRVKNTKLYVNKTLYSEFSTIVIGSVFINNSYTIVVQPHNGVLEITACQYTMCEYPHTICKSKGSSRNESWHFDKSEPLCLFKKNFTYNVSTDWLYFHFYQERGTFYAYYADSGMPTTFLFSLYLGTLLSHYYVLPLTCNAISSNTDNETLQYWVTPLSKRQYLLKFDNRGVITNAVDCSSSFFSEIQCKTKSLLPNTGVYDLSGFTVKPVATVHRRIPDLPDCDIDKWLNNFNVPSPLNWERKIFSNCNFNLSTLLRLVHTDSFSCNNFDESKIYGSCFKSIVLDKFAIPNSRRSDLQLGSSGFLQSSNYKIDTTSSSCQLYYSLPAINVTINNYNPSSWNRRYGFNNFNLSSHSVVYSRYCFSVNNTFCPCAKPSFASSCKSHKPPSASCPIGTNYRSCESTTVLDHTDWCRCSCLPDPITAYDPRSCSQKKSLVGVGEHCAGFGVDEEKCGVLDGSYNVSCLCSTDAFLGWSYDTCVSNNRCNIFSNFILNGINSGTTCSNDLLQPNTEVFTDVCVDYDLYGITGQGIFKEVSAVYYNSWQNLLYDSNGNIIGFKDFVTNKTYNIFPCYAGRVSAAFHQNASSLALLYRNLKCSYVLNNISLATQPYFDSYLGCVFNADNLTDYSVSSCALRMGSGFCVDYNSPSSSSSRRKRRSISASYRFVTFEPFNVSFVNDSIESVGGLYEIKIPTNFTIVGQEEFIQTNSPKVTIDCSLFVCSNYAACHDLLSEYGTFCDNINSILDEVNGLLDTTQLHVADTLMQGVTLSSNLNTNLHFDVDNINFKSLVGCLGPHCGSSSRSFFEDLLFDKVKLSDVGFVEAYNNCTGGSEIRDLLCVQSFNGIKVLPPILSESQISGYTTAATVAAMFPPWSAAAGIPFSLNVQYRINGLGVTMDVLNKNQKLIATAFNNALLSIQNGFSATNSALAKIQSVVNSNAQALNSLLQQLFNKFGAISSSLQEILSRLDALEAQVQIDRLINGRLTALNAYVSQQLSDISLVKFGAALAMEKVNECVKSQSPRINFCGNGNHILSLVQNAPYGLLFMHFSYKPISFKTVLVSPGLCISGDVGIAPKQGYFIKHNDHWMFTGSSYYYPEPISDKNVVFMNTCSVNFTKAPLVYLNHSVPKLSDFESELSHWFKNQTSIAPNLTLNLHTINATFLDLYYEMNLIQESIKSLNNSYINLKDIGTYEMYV

T2: HCoV-OC43 trimeric S protein (amino acids 12-1299) with T4 foldon, histidine tag and strep-tag (HCoV-OC43, UniProt P36334 12-1291)
T2 chain: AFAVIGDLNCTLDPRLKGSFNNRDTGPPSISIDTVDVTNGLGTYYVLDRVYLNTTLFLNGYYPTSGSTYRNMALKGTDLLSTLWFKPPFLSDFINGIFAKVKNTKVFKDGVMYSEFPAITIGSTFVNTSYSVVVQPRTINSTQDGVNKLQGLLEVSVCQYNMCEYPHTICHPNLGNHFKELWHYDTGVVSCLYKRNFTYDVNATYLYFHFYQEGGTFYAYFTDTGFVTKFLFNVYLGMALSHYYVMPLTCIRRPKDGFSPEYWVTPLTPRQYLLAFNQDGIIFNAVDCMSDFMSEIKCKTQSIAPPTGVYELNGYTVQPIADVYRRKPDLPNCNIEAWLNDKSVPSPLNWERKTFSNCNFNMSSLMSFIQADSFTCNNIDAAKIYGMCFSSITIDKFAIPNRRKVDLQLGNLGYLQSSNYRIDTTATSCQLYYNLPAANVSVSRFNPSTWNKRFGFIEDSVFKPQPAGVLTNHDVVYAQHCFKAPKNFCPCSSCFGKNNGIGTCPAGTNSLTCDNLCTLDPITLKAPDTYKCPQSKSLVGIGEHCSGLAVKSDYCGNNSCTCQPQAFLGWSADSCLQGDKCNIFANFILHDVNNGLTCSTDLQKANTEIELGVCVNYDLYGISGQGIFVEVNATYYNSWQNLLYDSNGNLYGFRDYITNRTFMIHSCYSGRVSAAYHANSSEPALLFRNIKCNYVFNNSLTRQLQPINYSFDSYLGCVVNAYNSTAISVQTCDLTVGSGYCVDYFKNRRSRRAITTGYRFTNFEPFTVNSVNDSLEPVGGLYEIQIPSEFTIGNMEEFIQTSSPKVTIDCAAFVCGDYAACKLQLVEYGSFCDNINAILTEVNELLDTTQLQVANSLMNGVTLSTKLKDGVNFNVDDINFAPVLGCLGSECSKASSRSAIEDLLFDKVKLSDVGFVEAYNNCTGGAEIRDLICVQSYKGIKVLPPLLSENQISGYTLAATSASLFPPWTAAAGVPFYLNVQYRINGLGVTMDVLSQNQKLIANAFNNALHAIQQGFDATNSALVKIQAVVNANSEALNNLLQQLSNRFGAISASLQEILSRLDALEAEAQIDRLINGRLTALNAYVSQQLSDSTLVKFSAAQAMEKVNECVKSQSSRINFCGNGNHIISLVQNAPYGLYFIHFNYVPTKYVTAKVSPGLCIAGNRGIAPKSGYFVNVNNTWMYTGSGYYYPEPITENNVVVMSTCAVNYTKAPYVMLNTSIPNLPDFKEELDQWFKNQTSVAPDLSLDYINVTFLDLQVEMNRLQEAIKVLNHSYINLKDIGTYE

B1: NT-108 (recombinant human IgG1/kappa antibody) (antibody, V domains shown)
VH: EVQLQQSGPGLVKPSQTLSLTCSISGDSVSSNSAAWNWIRQSPSRGLEWLGRTYYRSKWYNDYAGTVKSRIAINPDTSKNQFSLHLNSVTPEDTAVYFCARVISVAGYAFDIWGQGTMVTVSS
VL: EIVLTQSPGTLSLSPGERATLSCRASQSVSSTFLAWYQQKPGQAPRLLIYGASYMATGIPDRFSGSGSGTDFTLTISRLEPEDFAVYYCQQYGSSLTFGGGTKLEIK
B2: NT-193 (recombinant human IgG1/kappa antibody) (antibody, V domains shown)
VH: EVQLQQWGAGLLKPSETLSLTCAVYGGSFSGYYWSWIRQPPGKGLEWIGEINHSGSTNYNPSLKSRVTISVDTSKNQFSLKLSSVTAADTAVYYCARGWDLDYYYGMDVWGQGTTVTVSS
VL: DIRMTQSPSAMSASVGDRVTVTCRASQGIGNYLAWFQLKPGKVPKRLIYAASSLQSGVPARFSGGGSGTEFTLTISSLQPEDFATYYCLQHGFLPWTFGQGTKLEIK

What was measured:
[1] = target: T1, HCoV-HKU1 trimeric S protein (amino …); test: ELISA on coated S-trimeric antigen, anti-human IgG-HRP [Human IgG1, NT-108]
[2] = target: T2, HCoV-OC43 trimeric S protein (amino …); test: ELISA on coated S-trimeric antigen, anti-human IgG-HRP [Human IgG1, NT-193]
[3] = target: T1, HCoV-HKU1 trimeric S protein (amino …); test: as above

Binder | binding result [1] | binding result [2] | binding result [3]
B1 | no binding (tested: 1000 ng/ml) |  | 
B2 |  | no binding (tested: 1000 ng/ml) | no binding (tested: 1000 ng/ml)
